Experimental findings from the nanobody polyreactivity screen of Harvey et al. (2022) are described below.

A short description of this series: yeast display, Sf9 membrane polyspecificity reagent, FACS + sequencing; frameworks hold sequencing errors. A digest of the protocol:
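Galactose induction of a Saccharomyces cerevisiae BJ5465 synthetic nanobody display library ran 36–48 hours. The cells were then stained for 1 hour at 4 °C with 10% biotinylated, detergent-solubilized Sf9 membrane reagent, pulled down on streptavidin microbeads and FACS-sorted into low and high (top ~1%) gates on expression and reagent-binding fluorescence. Labels for polyreactivity follow the gate of origin.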
Take “QVQLVESGGGLVQAGGSLRLSCAASGRIYSFYAMGWYRQAPGKERELVAAITYTDGSTYADSVKGRFTISRDNAKNTVYLQLNSLKPEDTSVYYFATRYRWTPYDFWGQGTQVTVSS”: the “polyreactivity (PSR sort gate)” value is reported as “low polyreactivity”.
The value for “QVQLVESGGGLVQAGGSLRLSCAASGRIYSSYAMGRYRQAPGKERELVAAISYSGDRTYYADSVKGRFTISRDNAKNTVYLQMNSLKPEDTAVYYCAARRVTRTTVYRYQYYYWGQGTQVTVSS” was “high polyreactivity”; that for “QVQLVESGGGLVQAGGSLRLSCAASGRIYTRYMGWYRQAPGKEREMVATINWSGGSTYYADSVKGRFTISRDNAKNTVYLQMNSLKPEDTAVYYCNARNVDFYYVQYNGAKIFDYWGQGTQVTVSS” was “low polyreactivity”.
The value for “QVQLVESGGGLVQAGGSLRLSCAASGRIYTYYTMGWYRQAPGKERELVAAITVRGGRTYYADSVKGRFTISRDNAKNTDYLQMNSLKPEDTAVYYCAARGLVRSYDYWGQVTQVTVSS” was “high polyreactivity”.
The value for “QVQLVESGGGLVQAGGSLRLSCAASGRLFNYNAMGWYRQAPGKERELVASITVSRGSTYYADSVKGRFTISRDNATNTVYLQMYSLKPEDTAVYNCAADYGSKLDYGYWGQGTQVTVSS” was “low polyreactivity”; that for “QVQLVESGGGLVQAGGSLRLSCAASGRLFSYYAMGWYRPAPGKERELVAGISYRGGSTYYADSVKGRFTISRDNAKNTVYLQMNSLKPEDTAVYYCAARPYSYGQRSLRGYWGQGTQVTVSS” was “high polyreactivity”; that for “QVQLVESGGGLVQAGGSLRLSCAASGRLFYRNAMGWYRQAPGKERELVAAISSSAGSTYYADSVKGRFTISRDNAKNTVYLQMNSLKPEDTAVYYCAASLYSWGQGTQVTVSS” was “high polyreactivity”.
With “QVQLVESGGGLVQAGGSLRLSCAASGRMFGPYTMGWYRQAPGKEREFVAAITRRGGSTYYADSVKGRFTFSRDNAKNTVYLQMNSLKPEDTAVYYCAAVGQNRSLGYSWGQGTQVTVSS”, the “polyreactivity (PSR sort gate)” value is reported as “low polyreactivity”.
The value for “QVQLVESGGGLVQAGGSLRLSCAASGRMFSAYAMGWYRQAPGKERELVAAITSVGSTKYADSVKGRFTISRDNAKNTVYLQMNSLKPEDTAVYYCAAEYTRSFYIYYRFGYWGQGTQVTVSS” was “high polyreactivity”; that for “QVQLVESGGGLVQAGGSLRLSCAASGRNFGPYAMGWSRQAPGKERELVASITRSGGRTYYADSVKGRYTISRDNAKNTVYLQMNSLKPEDTAVYYCAAGGFSKSYYYWGQGTQVTVSS” was “high polyreactivity”; that for “QVQLVESGGGLVQAGGSLRLSCAASGRNFGPYAMGWYRQAPGKERELVAVISTRGGITNYADSVKGRFTISRDTAKNTVYVQLNSLKPEDTAVYYCAARFSYPYRIAFNYWGQGTQVTVSS” was “low polyreactivity”.
The value for “QVQLVESGGGLVQAGGSLRLSCAASGRNFGSYAMGWYRQAPGKERELVAAITSGGSTYYADSVKGRFTISRDNAKNTVYLQMNSLKPEDTAVYYCAARQVRTSKLHMGYWGQGTQVTVSS” was “low polyreactivity”; that for “QVQLVESGGGLVQAGGSLRLSCAASGRNFKHYAMGWYRQAPGKERELVAAISYSGGSPKYADSVKGRFTISRYNAMNTVYLQMNSLKPEDTAVYYCAARFFTPFRFSYDYWGQGTQVTVSS” was “high polyreactivity”.
The value for “QVQLVESGGGLVQAGGSLRLSCAASGRNFKNYDMVWYRQAPGKERELVADISWRSGSTNYSDSVKGRFTISRDNAKNNVYLQMNSLKPEDTAVYYCASKRRISGWSQFTSYADFDYWGQGTQVTVSS” was “low polyreactivity”; that for “QVQLVESGGGLVQAGGSLRLSCAASGRNFNYNAMGWYRQAPGKERELVAVISWSGRTYYADSVKGRFTISRDNAKNTVYLLMNSLKPEDTAVYYCNKRSYRVLYGYWGQGTQVTVSS” was “high polyreactivity”; that for “QVQLVESGGGLVQAGGSLRLSCAASGRNFPYYAMGWYRQAPGKERELVAAISSSGGGTYYADSVKGRFTISRDNEKNTVYLQMNSLKPEDTAVYYCAAVYKVHSGLYDYWGQGTQVTLSS” was “high polyreactivity”.
Take “QVQLVESGGGLVQAGGSLRLSCAASGRNFSFNTMVWYIQAPRKERELVAAITSSSARTYYADSVKGRFTISRDNAKNTVYLQMNSLKPEDTAVDYCDTRDWVGSVRMGYWGQGTQVTVSS”: the “polyreactivity (PSR sort gate)” value is recorded as “high polyreactivity”.
With “QVQLVESGGGLVQAGGSLRLSCAASGRNFSLYAMGWYRQAPGKERELVAAISRGGSTYYADSVKGRFTISRDNAKNTVYLQMNSLKPEDTAVYYCAAAPDYRAEYDYWGQGTQVTVSS” the entry was “low polyreactivity”; with “QVQLVESGGGLVQAGGSLRLSCAASGRNFTRNAMGWYRQAPGKEREFVAAISYRGGSTYYADSVKGRFTISRDNAKNTVYLQMNSLKPEDSAVYYCAKRIYPYYGELYWGQGTQVTVSS”, “high polyreactivity”; with “QVQLVESGGGLVQAGGSLRLSCAASGRNFWVYAMGWYRQAPGKERELVAAISLSGGRTYYADSVKGRFTITRDKAKNNVNLQMNSLKPEDTAVYYCYAVYPKRGGGRIVDYWGQGTQVTVSS”, “high polyreactivity”.
With “QVQLVESGGGLVQAGGSLRLSCAASGRNFYVYAMGWYRQAPGKERELVATISRGGSTTYADSVKGRFTISRDNAKNTVYLQMNSLKPEDTAVYYCATELLGGRRTVAYYWGQGTQVTVSS” the entry was “low polyreactivity”.
The value for “QVQLVESGGGLVQAGGSLRLSCAASGRNFYVYGLGWYRQAPGKERELVASITYRGGSTSYADSVKGRFTISRDNAKNTVYLQMNSLKPEDTAVYYCNADTYYRYDYWGQGTQVTVSS” was “high polyreactivity”; that for “QVQLVESGGGLVQAGGSLRLSCAASGRNFYYNAMGWYRQAPGKERELVAVISGRGGSTYYADSVKGRFTISRDNAKNTVYLQMNSLKPEDTAVYYCAAGYTRPWRFTYYYWGQGTQVTVSS” was “high polyreactivity”; that for “QVQLVESGGGLVQAGGSLRLSCAASGRNITANAMGWYRQAPGKEREFVAAINVSGGSTYYADSVKGRFTISRDNAKNTVYFQMNSLKPEDTAVYYCNADYYYYDIYWWQMDYWGLGTQVTVSS” was “low polyreactivity”.
Consider “QVQLVESGGGLVQAGGSLRLSCAASGRPFRGYAMGWYRQAPGKDRELVAAITRSGGSTYYADSVKGRFTISRDNAKNTVYVQMTSLKPEDTAVSYCNAVRHAQSRWPYGYWGQGTQVTVSS”, for which the “polyreactivity (PSR sort gate)” value was “high polyreactivity”.
The value for “QVQLVESGGGLVQAGGSLRLSCAASGRPFVGNVMGWYRQAPGKERELVDAITRTAGSTYYADSVKGRFTISRDNAKNTVYLEMNSLKPEDTAVDYCAVEGIYRWYDYSWYYTSTYDYWGQGTQVTVSS” was “low polyreactivity”; that for “QVQLVESGGGLVQAGGSLRLSCAASGRSFSGYAMGWYRQAPGKERDLVAAITSSGGRTYYADSVKGRFTISRDNAKNTVYVQMNSLKPEETAVYYSAAMRPGYRPQGLDYWGQGTQVTVSS” was “low polyreactivity”; that for “QVQLVESGGGLVQAGGSLRLSCAASGRSFYFNAMGWYRQAPGKERELVATISSSSTTYADSVKRRFTISRDNAKNTVYLQMTSLKPEDTAVYYCAARLGTYGEWGRTSYLRWYDYWGQGTQVTVSS” was “low polyreactivity”.
The value for “QVQLVESGGGLVQAGGSLRLSCAASGRSIAYYAMGWYRQAPGKERELVAAINWSGGRTYYADSVKGRFTLSRDNAKNTVYLQMNSLKPEETAVYYCNAVYNESRGSYQDDYWGQGTQVTVSS” was “high polyreactivity”; that for “QVQLVESGGGLVQAGGSLRLSCAASGRSLGWYAMGWYRKAPGKERELVAAISSGVRTNYADSVKGRFTISRDNAKNTVYLQMNSLKPEDTAVYYCAAATYNQDYSYDYWGQGTQVTVSS” was “low polyreactivity”; that for “QVQLVESGGGLVQAGGSLRLSCAASGRTCGRYAMVLYRQAPGKERELVAAISYSGGSTYYADSVKGRFTISRDNAKNTVYLQMNSLKPEDTAVYYCARYSIFRWTRDEYWGQGTQVTVSS” was “high polyreactivity”.
With “QVQLVESGGGLVQAGGSLRLSCAASGRTCWYKAMGWYRQAPGKERELVAPITSGGRTKYADSVKGRFTISRDNAKNTVYLQMNSLKPEDTAVYYCNTYNRRSGTLPKPYDYWGQGTQVTVSS” the entry was “high polyreactivity”.
For “QVQLVESGGGLVQAGGSLRLSCAASGRTCYNTMGWYRQAPGKERELVAAISRGGITNYADSVKGRFTISRDSAKKTGYLQMNRLKPEDTAVYYCNAEPKRYYYYYKFDYWGQGTQVTVSS”, the “polyreactivity (PSR sort gate)” value is reported as “high polyreactivity”.
For the sequence “QVQLVESGGGLVQAGGSLRLSCAASGRTDAYYAMGWYRQAPGKERELVAAITRGGSTYYADSVKGRFTISRDNAKNTVYLQMNSLKPEDTAVYYCAAATSPYQDDYWGQGTQVTVSS”, the “polyreactivity (PSR sort gate)” value is reported as “low polyreactivity”.
With “QVQLVESGGGLVQAGGSLRLSCAASGRTFAAYTMGWYSQAPGKERELVAAIRRSGSSTYYADSVKGRFTISRDNAKNTVYLQMNSLKPEDTAVYYCARVGRFTGGGYWGQGTQVTVSS” the entry was “high polyreactivity”; with “QVQLVESGGGLVQAGGSLRLSCAASGRTFAGNAMGWYRQAPGKERELVAAIRRTGGRTYYADSVKGRFTISRDNAKNTVYLQMNSLKPEETAVYYCNAVNKPYTREYGYDYWGQGTQVTGSS”, “high polyreactivity”.
With “QVQLVESGGGLVQAGGSLRLSCAASGRTFAGNAMGWYRQAPGKERELVAGISSGGSTNNADSVKGRFTSTRDNAKNTVYLQMNSLNPEDTAVYYCAKRYFRKGYPLFQYAYGYWGQGTQVTLSS” the entry was “high polyreactivity”; with “QVQLVESGGGLVQAGGSLRLSCAASGRTFAGYAMGWYRQAPGKERELVAAISTRGGSTYYADSVKGRFTISRDNAKNTVYLQMNSLKPEDTAVYYCAATKPKFYQFDYWGQGTQVTVSS”, “high polyreactivity”.
The value for “QVQLVESGGGLVQAGGSLRLSCAASGRTFAGYVMGWYRQAPGKERELVAAISTSGGSTRYADSVKGRFTISRDNAKNTVYLQMNSLKPEDTAVYYCAKLLYLGRWRFPAGYNHWGQGTQVTVSS” was “high polyreactivity”.
Regarding “QVQLVESGGGLVQAGGSLRLSCAASGRTFAIDAMGWYRQAPGKEREFVAAISWSGGDTYYADSVKGRFTISRDNAKNTVYFQMNRLKPEDTAVYYSAGRDNDYEGRDLQDELDYWGQGTQVTVSS”, the “polyreactivity (PSR sort gate)” value is on record as “low polyreactivity”.
In the case of “QVQLVESGGGLVQAGGSLRLSCAASGRTFAINARGWYRQAPGKERELVAAITTSGGGTYYADSVKGRFTISRDNAKNTVYLQMNSLKPEDTAVYYCAAGTSYYTYRFYAWDYDYWGQGTQVTVSS”, the “polyreactivity (PSR sort gate)” value was “low polyreactivity”.
